Paper PMC6315854, “Cloning, Expression and Characterization of a Novel Cold-adapted β-galactosidase from the Deep-sea Bacterium Alteromonas sp. ML52” (Marine Drugs, 2018)

Test system: O=[N+]([O-])c1ccccc1O[C@@H]1O[C@H](CO)[C@H](O)[C@H](O)[C@H]1O
Experiment: purified protein
Details: 35 °C, 50 mM sodium phosphate pH 8, ONPG 0.1–5 mM

recombinant Gal (β-galactosidase) (Alteromonas sp.)
Km: 140 µM | Vmax: 465 µmol/min/mg | kcat: 3690 s⁻¹ | kcat/Km: 2.63e+07 M⁻¹ s⁻¹
